Experimental data from patent US20240141072A1 (published 2024).

Key:
Assay in all cases: Octet BLI; biotinylated huDLL3-IgG1 fusion on streptavidin tips; single 50 nM trispecific, conditioned medium
[1] = target: T1, anti-DLL3 trispecific protein with DLL3 binding domain 53A05
T1 construct: trispecific, one chain
Description: (§1) Using the conditioned medium with known concentrations of the anti-DLL3 trispecific proteins, the relative binding affinities of the anti-DLL3 trispecific proteins toward human DLL3 protein were measured using a method where biotinylated version of human DLL3 protein were expressed as a human IgG1 fusion protein, and the binding affinity measurement was carried out in an Octet instrument with streptavidin tips.

[2] = target: T2, anti-DLL3 trispecific protein with DLL3 binding domain 54B05
T2 construct: trispecific, one chain
Description: as §1

[3] = target: T3, anti-DLL3 trispecific protein with DLL3 binding domain 42C03
T3 construct: trispecific, one chain
Description: as §1

[4] = target: T4, anti-DLL3 trispecific protein with DLL3 binding domain 51A01
T4 construct: trispecific, one chain
T4 sequence (chain, as listed by the source): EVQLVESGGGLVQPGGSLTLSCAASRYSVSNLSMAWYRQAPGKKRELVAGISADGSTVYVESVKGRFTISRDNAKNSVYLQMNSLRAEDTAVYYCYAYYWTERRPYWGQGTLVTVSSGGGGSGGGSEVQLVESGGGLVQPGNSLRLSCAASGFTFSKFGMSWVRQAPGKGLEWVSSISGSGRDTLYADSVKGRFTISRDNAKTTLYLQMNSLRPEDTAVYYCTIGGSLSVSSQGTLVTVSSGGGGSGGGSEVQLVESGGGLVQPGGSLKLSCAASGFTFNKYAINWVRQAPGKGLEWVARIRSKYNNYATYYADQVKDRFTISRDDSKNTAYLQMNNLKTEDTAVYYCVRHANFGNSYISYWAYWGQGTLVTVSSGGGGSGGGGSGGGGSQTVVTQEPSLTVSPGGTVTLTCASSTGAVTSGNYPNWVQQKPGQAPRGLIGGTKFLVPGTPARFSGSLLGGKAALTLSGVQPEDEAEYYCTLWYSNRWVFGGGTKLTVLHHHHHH
Description: as §1

[5] = target: T5, anti-DLL3 trispecific protein with DLL3 binding domain 53A09
T5 construct: trispecific, one chain
Description: as §1

[6] = target: T6, anti-DLL3 trispecific protein with DLL3 binding domain 51A05
T6 construct: trispecific, one chain; also called 51A5
T6 sequence (chain, as listed by the source): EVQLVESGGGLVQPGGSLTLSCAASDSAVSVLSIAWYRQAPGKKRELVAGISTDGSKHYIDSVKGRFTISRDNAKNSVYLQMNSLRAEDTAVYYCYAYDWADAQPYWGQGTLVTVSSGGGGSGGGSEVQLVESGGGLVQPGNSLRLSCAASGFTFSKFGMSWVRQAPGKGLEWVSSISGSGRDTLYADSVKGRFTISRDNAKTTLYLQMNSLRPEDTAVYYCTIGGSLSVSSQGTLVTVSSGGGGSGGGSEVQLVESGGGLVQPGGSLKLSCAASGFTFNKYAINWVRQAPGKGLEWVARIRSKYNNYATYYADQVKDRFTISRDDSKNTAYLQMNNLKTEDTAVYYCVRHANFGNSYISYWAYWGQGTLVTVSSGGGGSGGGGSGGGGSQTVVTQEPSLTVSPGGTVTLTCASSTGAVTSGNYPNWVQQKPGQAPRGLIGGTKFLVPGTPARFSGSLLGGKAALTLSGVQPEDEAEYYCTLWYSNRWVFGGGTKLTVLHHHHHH
Description: as §1

[7] = target: T7, anti-DLL3 trispecific protein with DLL3 binding domain 42E05
T7 construct: trispecific, one chain
T7 sequence (chain, as listed by the source): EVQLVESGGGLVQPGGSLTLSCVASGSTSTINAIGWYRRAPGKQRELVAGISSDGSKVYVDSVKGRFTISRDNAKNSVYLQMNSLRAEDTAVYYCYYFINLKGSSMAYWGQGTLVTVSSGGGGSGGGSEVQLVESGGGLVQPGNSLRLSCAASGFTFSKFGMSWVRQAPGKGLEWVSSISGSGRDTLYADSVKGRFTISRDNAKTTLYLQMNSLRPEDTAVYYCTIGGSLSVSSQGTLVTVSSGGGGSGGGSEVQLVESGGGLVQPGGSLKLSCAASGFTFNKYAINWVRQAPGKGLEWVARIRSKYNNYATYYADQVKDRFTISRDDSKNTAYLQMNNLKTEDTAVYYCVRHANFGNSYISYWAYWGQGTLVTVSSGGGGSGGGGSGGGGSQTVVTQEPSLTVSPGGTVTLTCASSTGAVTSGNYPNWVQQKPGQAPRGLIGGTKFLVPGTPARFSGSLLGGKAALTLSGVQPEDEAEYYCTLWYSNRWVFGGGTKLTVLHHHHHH
Description: as §1

[8] = target: T8, anti-DLL3 trispecific protein with DLL3 binding domain 51A02
T8 construct: trispecific, one chain
Description: as §1

[9] = target: T9, anti-DLL3 trispecific protein with DLL3 binding domain 42D08
T9 construct: trispecific, one chain
Description: as §1

[10] = target: T10, anti-DLL3 trispecific protein with DLL3 binding domain 41D01
T10 construct: trispecific, one chain
T10 sequence (chain, as listed by the source): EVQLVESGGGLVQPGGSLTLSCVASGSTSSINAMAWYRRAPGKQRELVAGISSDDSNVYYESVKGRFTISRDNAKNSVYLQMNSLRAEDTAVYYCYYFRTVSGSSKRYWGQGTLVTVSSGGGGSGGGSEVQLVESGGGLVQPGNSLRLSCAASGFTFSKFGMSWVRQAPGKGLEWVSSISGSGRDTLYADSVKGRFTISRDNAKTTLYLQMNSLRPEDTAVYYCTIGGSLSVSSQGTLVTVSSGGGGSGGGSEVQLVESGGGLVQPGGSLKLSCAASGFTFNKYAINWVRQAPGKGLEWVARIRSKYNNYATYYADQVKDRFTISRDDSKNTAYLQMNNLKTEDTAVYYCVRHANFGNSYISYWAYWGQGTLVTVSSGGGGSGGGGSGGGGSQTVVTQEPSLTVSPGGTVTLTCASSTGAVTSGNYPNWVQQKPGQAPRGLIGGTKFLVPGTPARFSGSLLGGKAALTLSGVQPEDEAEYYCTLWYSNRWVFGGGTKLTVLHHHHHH
Description: as §1

[11] = target: T11, anti-DLL3 trispecific protein with DLL3 binding domain 42A03
T11 construct: trispecific, one chain
Description: as §1

[12] = target: T12, anti-DLL3 trispecific protein with DLL3 binding domain 41C02
T12 construct: trispecific, one chain
Description: as §1

[13] = target: T13, anti-DLL3 trispecific protein with DLL3 binding domain 51B11
T13 construct: trispecific, one chain
Description: as §1

[14] = target: T14, anti-DLL3 trispecific protein with DLL3 binding domain 51F02
T14 construct: trispecific, one chain
Description: as §1

[15] = target: T15, anti-DLL3 trispecific protein with DLL3 binding domain 42H11
T15 construct: trispecific, one chain
Description: as §1

[16] = target: T16, anti-DLL3 trispecific protein with DLL3 binding domain 41E02
T16 construct: trispecific, one chain
Description: as §1

[17] = target: T17, anti-DLL3 trispecific protein with DLL3 binding domain 51E02
T17 construct: trispecific, one chain
Description: as §1

[18] = target: T18, anti-DLL3 trispecific protein with DLL3 binding domain 42C01
T18 construct: trispecific, one chain
Description: as §1

[19] = target: T19, anti-DLL3 trispecific protein with DLL3 binding domain 42E06
T19 construct: trispecific, one chain
Description: as §1

[20] = target: T20, anti-DLL3 trispecific protein with DLL3 binding domain 51G10
T20 construct: trispecific, one chain
Description: as §1

[21] = target: T21, anti-DLL3 trispecific protein with DLL3 binding domain 41E01
T21 construct: trispecific, one chain
Description: as §1

[22] = target: T22, anti-DLL3 trispecific protein with DLL3 binding domain 51F04
T22 construct: trispecific, one chain
T22 sequence (chain, as listed by the source): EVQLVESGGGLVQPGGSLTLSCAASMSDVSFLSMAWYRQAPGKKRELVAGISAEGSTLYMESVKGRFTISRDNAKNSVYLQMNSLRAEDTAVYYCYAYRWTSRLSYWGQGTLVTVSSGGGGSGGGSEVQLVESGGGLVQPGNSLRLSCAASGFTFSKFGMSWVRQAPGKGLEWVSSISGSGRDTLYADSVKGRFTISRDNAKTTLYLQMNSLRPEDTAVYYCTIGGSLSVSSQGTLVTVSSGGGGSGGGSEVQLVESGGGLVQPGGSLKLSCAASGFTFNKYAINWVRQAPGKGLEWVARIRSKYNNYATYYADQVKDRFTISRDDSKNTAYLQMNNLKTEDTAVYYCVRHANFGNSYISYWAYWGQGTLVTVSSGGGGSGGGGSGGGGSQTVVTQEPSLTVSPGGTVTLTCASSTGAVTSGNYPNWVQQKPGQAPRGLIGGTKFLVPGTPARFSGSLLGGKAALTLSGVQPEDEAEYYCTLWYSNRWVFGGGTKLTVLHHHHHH
Description: as §1

[23] = target: T23, anti-DLL3 trispecific protein with DLL3 binding domain 51D01
T23 construct: trispecific, one chain
Description: as §1

[24] = target: T24, anti-DLL3 trispecific protein with DLL3 binding domain 41B11
T24 construct: trispecific, one chain
Description: as §1

[25] = target: T25, anti-DLL3 trispecific protein with DLL3 binding domain 42F10
T25 construct: trispecific, one chain
T25 sequence (chain, as listed by the source): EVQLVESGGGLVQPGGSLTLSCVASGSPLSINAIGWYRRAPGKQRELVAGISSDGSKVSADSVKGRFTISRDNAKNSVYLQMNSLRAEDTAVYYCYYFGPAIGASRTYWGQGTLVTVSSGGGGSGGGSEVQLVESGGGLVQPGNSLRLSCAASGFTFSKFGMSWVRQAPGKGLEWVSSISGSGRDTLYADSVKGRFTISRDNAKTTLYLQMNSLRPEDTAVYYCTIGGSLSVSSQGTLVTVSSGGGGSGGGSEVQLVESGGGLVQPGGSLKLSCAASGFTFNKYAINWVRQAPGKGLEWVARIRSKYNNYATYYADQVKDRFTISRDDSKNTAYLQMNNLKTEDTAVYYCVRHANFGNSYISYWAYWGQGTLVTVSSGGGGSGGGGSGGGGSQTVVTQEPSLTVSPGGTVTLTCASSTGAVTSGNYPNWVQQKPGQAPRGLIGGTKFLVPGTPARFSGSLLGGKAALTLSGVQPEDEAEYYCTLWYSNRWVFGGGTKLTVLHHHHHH
Description: as §1

[26] = target: T26, anti-DLL3 trispecific protein with DLL3 binding domain 41F07
T26 construct: trispecific, one chain
T26 sequence (chain, as listed by the source): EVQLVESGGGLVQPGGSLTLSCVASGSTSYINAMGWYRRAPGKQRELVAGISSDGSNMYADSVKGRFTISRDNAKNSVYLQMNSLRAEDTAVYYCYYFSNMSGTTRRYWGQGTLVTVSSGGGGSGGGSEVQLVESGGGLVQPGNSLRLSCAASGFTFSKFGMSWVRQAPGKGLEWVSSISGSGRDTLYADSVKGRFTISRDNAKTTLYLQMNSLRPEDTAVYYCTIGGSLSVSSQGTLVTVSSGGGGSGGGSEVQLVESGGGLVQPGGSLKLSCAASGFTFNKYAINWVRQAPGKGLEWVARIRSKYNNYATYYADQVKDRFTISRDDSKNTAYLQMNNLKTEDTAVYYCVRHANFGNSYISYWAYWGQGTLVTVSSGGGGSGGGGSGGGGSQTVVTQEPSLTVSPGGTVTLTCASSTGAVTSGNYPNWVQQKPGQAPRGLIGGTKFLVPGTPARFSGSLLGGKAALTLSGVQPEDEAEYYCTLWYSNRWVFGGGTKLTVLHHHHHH
Description: as §1

[27] = target: T27, anti-DLL3 trispecific protein with DLL3 binding domain 41D07
T27 construct: trispecific, one chain
Description: as §1

[28] = target: T28, anti-DLL3 trispecific protein with DLL3 binding domain 51H05
T28 construct: trispecific, one chain; also called 51H5
T28 sequence (chain, as listed by the source): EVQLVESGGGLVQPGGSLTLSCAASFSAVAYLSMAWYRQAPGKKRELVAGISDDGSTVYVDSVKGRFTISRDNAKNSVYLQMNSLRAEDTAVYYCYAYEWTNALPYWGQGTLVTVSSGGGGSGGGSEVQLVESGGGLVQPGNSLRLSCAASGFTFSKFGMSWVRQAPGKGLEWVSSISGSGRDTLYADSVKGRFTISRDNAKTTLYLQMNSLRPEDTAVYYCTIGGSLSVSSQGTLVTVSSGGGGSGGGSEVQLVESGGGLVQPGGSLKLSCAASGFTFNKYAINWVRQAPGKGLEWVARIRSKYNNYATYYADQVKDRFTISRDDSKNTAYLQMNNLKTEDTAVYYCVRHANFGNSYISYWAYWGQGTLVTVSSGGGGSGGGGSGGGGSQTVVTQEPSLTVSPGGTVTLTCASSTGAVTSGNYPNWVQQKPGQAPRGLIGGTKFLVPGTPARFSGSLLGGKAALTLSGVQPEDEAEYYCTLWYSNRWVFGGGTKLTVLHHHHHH
Description: as §1

T1 sequence (chain, as listed by the source): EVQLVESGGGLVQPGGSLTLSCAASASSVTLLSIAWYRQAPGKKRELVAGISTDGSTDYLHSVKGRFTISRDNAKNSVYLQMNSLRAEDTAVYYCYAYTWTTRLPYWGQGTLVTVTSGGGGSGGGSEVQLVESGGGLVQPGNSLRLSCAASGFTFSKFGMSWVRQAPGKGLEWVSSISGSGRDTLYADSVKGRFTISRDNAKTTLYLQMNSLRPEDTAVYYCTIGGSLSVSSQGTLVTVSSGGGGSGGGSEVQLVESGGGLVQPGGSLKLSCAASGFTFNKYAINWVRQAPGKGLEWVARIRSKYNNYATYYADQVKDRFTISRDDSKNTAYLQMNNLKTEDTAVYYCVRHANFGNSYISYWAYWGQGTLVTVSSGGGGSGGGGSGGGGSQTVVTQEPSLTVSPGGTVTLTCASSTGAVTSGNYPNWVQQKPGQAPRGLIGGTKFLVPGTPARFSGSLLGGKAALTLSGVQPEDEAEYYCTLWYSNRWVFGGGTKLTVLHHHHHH

B1: biotinylated human DLL3 protein expressed as a human IgG1 fusion protein (Fc fusion, not shown: a dimerising Fc or GST)
chain: AGVFELQIHSFGPGPGPGAPRSPCSARLPCRLFFRVCLKPGLSEEAAESPCALGAALSARGPVYTEQPGAPAPDLPLPDGLLQVPFRDAWPGTFSFIIETWREELGDQIGGPAWSLLARVAGRRRLAAGGPWARDIQRAGAWELRFSYRARCEPPAVGTACTRLCRPRSAPSRCGPGLRPCAPLEDECEAPLVCRAGCSPEHGFCEQPGECRCLEGWTGPLCTVPVSTSSCLSPRGPSSATTGCLVPGPGPCDGNPCANGGSCSETPRSFECTCPRGFYGLRCEVSGVTCADGPCFNGGLCVGGADPDSAYICHCPPGFQGSNCEKRVDRCSLQPCRNGGLCLDLGHALRCRCRAGFAGPRCEHDLDDCAGRACANGGTCVEGGGAHRCSCALGFGGRDCRERADPCAARPCAHGGRCYAHFSGLVCACAPGYMGARCEFPVHPDGASALPAAPPGLRPGDPQRYL
modifications: biotinylated
With B1 the Kd [1] was 0.31 nM, the Kd [2] was 0.76 nM and the Kd [3] was 0.88 nM. For the same binder, the Kd [4] was 0.92 nM, the Kd [5] was 0.97 nM and the Kd [6] was 1.1 nM. For the same binder, the Kd [7] was 1.2 nM, the Kd [8] was 1.2 nM and the Kd [9] was 1.3 nM. It also gave a Kd [10] of 1.4 nM, a Kd [11] of 1.9 nM and a Kd [12] of 2.4 nM. The Kd [13] was 2.4 nM, the Kd [14] was 2.4 nM and the Kd [15] was 3.1 nM. It also gave a Kd [16] of 3.4 nM, a Kd [17] of 3.5 nM and a Kd [18] of 3.6 nM. It also gave a Kd [19] of 3.8 nM, a Kd [20] of 0.6 nM and a Kd [21] of 5.3 nM. The Kd [22] was 6.7 nM, the Kd [23] was 7.9 nM and the Kd [24] was 9.9 nM. For the same binder, the Kd [25] was 17 nM, the Kd [26] was 25 nM and the Kd [27] was 34 nM. The Kd [28] was 0.67 nM.
